According to patent publication US20110262929A1 (FORERUNNER PHARMA RESEARCH, published 2011):
Changes are numbered by the printed parent chain. Values belong to the binder of their own block, whether it stands above or below them.

Key:
[1] = target: T1, C-terminal V5 tagged HS6ST2_N-short (HS6ST2_N-short_ctV5), expressed in CHO DG44 cells (human, UniProt Q96MM7 147-605); assay: flow cytometry on HS6ST2_N-short_ctV5_CHO cells, antibody 2 µg/mL
T1 construct: also called Q96MM7-2
T1 sequence: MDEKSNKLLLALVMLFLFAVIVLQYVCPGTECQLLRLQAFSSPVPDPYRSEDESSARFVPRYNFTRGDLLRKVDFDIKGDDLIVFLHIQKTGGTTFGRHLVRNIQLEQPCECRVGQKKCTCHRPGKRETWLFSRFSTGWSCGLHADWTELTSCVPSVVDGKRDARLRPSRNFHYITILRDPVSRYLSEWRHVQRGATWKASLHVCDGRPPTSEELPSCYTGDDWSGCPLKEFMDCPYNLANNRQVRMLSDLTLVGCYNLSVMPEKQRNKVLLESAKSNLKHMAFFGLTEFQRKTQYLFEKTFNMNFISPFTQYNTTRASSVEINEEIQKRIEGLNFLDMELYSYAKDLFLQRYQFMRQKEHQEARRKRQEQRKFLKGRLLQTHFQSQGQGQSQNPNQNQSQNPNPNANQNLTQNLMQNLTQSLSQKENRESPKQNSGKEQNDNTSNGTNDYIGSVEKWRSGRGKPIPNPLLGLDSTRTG
Description: (§1) Binding of the anti-HS6ST2 antibodies prepared in Example 2 to mHS6ST2 was evaluated by flow cytometry. The cells used were mHS6ST2_ctV5_CHO, HS6ST2_N-short_ctV5_CHO as a positive control, and the CHO DG44 cell line as a negative control.
(§2) Each anti-HS6ST2 antibody or mouse IgG1 (mIgG1, BD Biosciences Pharmingen) as a negative control was added to a final concentration of 2 μg/mL into 96-well U-bottom plates (Becton Dickinson) containing 5×10⁴ cells suspended in PBS (FACS buffer) supplemented with 0.5% bovine serum albumin and 0.1% NaN₃. After reaction on ice for 1 hour, the cells were washed with FACS buffer. Then, an FITC-labeled anti-mouse antibody (Goat F(ab′)₂ Fragment Anti-mouse IgG (H+L)-FITC, Beckman Coulter) was added as a secondary antibody, and the mixture was reacted on ice for 1 hour. The cells were washed with FACS buffer, and then suspended in FACS buffer containing 10 μg/mL propidium iodide (PI) (Sigma) and assayed by a flow cytometer (FACS Calibur, Becton Dickinson). The assay data were analyzed by CELLQuest software (Becton Dickinson), and the geo-mean of FITC fluorescent intensity was calculated for the PI-negative population of viable cells.

[2] = target: T2, C-terminal V5 tagged mouse HS6ST2 (mHS6ST2_ctV5), expressed in CHO DG44 cells (mouse, UniProt Q80UW0 148-612); assay: flow cytometry, antibody diluted 5-fold from 10 µg/mL in 6 steps
T2 construct: also called mHS6ST2_ctV5_CHO; mouse HS6ST2 transcript variant 2
T2 sequence: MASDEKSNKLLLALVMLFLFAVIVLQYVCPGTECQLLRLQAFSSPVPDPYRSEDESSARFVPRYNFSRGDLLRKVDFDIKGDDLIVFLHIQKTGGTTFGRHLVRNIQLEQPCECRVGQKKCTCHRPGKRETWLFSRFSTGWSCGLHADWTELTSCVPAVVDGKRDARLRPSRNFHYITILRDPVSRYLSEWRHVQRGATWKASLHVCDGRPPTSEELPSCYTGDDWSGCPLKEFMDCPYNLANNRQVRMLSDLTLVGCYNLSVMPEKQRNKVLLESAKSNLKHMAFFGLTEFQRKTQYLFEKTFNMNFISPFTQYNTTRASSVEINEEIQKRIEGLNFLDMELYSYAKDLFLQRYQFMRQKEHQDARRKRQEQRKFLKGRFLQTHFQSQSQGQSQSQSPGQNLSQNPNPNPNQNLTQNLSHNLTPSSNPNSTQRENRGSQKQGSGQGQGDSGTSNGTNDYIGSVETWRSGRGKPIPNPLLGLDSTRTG
Description: as §1
as §2, with “Each anti-HS6ST2 antibody or mouse IgG1 (mIgG1, BD Biosciences Pharmingen) as a negative control was added to a final concentration of 2 μg/mL into 96-well U-bottom plates (Becton Dickinson) containing 5×10⁴ cells suspended in PBS (FACS buffer) supplemented with 0.5% bovine serum albumin and 0.1% NaN₃.” left out
It was also shown that A6 and C8 equally bind to HS6ST2 and mHS6ST2.

[3] = target: T3, C-terminal V5 tagged HS6ST2_N-long (HS6ST2_N-long_ctV5), expressed in CHO DG44 cells (human, UniProt Q96MM7 1-605); assay: flow cytometry on HS6ST2_N-long_ctV5_CHO cells
T3 construct: On cells in flow cytometry; also called Q96MM7-1
T3 sequence: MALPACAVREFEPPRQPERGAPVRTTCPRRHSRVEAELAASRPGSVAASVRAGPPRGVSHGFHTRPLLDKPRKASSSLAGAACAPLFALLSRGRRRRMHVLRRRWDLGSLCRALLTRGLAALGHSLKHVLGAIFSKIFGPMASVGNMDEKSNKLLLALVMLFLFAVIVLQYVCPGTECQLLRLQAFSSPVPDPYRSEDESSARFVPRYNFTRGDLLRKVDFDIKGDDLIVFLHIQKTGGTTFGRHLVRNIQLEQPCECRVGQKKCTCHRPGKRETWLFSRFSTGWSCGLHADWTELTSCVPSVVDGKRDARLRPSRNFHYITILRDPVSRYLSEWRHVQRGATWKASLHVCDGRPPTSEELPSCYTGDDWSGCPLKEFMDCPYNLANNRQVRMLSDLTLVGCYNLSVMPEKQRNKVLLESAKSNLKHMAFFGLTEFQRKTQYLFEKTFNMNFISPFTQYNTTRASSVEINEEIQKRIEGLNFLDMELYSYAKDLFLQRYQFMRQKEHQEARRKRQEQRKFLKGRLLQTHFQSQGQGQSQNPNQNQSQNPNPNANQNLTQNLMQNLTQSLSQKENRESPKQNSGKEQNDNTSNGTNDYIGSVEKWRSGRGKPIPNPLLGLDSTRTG
Description: as §2
Binding activity of the anti-HS6ST2 antibodies prepared in Example 2 to HS6ST2_N-long was evaluated by flow cytometry. The cells used were HS6ST2_N-long_ctV5_CHO cells and HS6ST2_N-short_{—} ctV5_CHO cells as a positive control, and evaluated in the same manner as in Example 3. The primary antibodies were used at a concentration of 10 μg/mL.

- binding result [1]: binds
- binding result [2]: binds
- binding result [3]: binds
B1: anti-HS6ST2 antibody A6 (antibody, mouse IgG1, V domains shown)
VH: EVQLQQSGAELVRSGASVKLSCTASGFNIKDYYMHWVKQRPEQGLEWIGWIDPENDDTEYAPKFQGRATMTADTSSNTAYLQLSSLTSEDTAVYYCNAGYYGSGFAYWGQGTLVTVSA
VL: DIVMTQSPSSLTVTAGEKVTMRCKSSQSLLNSGNQKNYLTWYQQKPGQPPRLLIYWASIRESGVPDRFTGSGSGTDFTLTISSVQAEDLAVYYCQNDYSYPLTFGTGTKLELK
notes: also called clone A6

- binding result [1]: binds
- binding result [2]: binds
- binding result [3]: binds
B2: anti-HS6ST2 antibody C8 (antibody, mouse IgG1, V domains shown)
VH: B1 VH with E54D, R67K, Y100N, Y101G, G102N, S103Y, G104W
VL: DVVMTQTPLSLPVSLGDQASISCRSSQSLVHSNGNTYLHWNLQKPGQSPKLLIYKVSNRFSGVPDRFSGSGSGTDFTLKISRVEAEDLGVYFCSQTTLVPYTFGGGTKLEIK
notes: also called clone C8; C8-biotin
